This note sets out measurements from paper PMC5771465 (Nature structural & molecular biology, 2016).

The target in assay [1] is C5-OmCI complex (human | not stated (tick)) (UniProt Q5YD59). Nature of the assay: SEC-MALS. In general terms: Size exclusion chromatography separates by hydrodynamic size, large species first.
The next assay has as its target complement C5 (human, UniProt P01031). Nature of the assay: crystal structure.

For “RaCI3 (from UniProt A0A146B485 25-102) (natural protein)”, in assay [1], the stoichiometry N (as a rule, the number of molecules, sites or subunits per partner or assembly) was determined as 1.

B1: His-tagged OmCI carrying two glycosylation mutations (N78Q/N102Q) (natural protein)
chain: DSESDCTGSEPVDAFQAFSEGKEAYVLVRSTDPKARDCLKGEPAGEKQDNTLPVMMTFKQGTDWASTDWTFTLDGAKVTATLGQLTQNREVVYDSQSHHCHVDKVEKEVPDYEMWMLDAGGLEVEVECCRQKLEELASGRNQMYPHLKDC
With B1, in the assay with complement C5, the binding result is listed as “binds”.
